The record followed here is a protein production outcome set (Wang et al. 2014).
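Also: failed if final PepcDB status was selected cloned or expressed and not failed if soluble or beyond.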

The nature of the series: label from the status in PepcDB records.
Take “MNEVKAVWIRQWFPGLYQFKDYQRGWLTDDVRAAFSVVAVALPVAIAYAQLTGVPAIVGLYSCVLPMLVYALMGTSRQLIVGPDAATCAVIAAVVTPLAAGDTTKHWQLVMTMTAMTGFWCILASRLKLGIFADFLSRPILLGLLNGVALTIIVGQFAKVLGLKYEKRYLLERIVEAPELLYSLHWQTLGLSALTLAIYLVIKRWQPRWPAAMFAIMVAALLVWALNLESVGVQVVGVIQGGLPEFQAPAFDLGISRELVMPALNLAMVSFVSMMLTARSFAAKNGYDIDADKEFRALGVANVAAAFSQGFAISGADSRTAVNDANGGKSQLVSVIAALFIALVAVFAYQPLQFIPVAALGVVLIIASLSLLDLKGVWNLRKRDKDAFYLALITFIAVLVIGVIPGITLAVLLGLFQFLKLVMRPTDQMMGLDEEGTLRTLDGSEKAKPIPGMVIFRFNSPLTYFNAPYFKRRILDQTEREGAQVGCVIIDAVASFTHLDLSVMAMLADLHGILKKRGIRLILAGRKRSLRHWCDLTGINTAEGGIVLRADMYLAIKLSGCYLSAMEEGHVPVVQKEPDISVLLKPTTTEVA”: the protein production result is recorded as “failed”.

With “MERNANYALVGAISLALFMGLVIFAVWLAKLSFNRDYDVYDILFVGPVRGLSQGGEVHFNGIKVGEVTRIELDKTDTNRVIARVRVTSDVPIKVDSYATLEPQGITGVNYVQITAGAPNKELLKDTVKTGKVPVIRTQRSALSDLLEGGGTVLTRTIEALDRVNRVLSDRNIKSFGATLTNVQAVTQEMRDRKEILADAQKALQSIDQTAQSITELSNSANTLVDGDAKRTLKELGDAAAELRATAKDARGMVTKLEGPASDFATTGLPQLSSAIVTLQSAAESLDRLVGEVEQNPRGVVGKAPAKEVEVKPLEHHHHHH”, the protein production entry is on record as “not failed”.

Turning to “MPPVWTLPRLYQHFQGAIDLELWTIPYYLTVLYSIKDPTTVPYRLIQAAVYQEMLHAQLVSNIANAYGYSPTLSAPEYVGTAVPHIDFDLDTPNPTSIFTPYSAELGPLDLTRVNTMCLIEYPEWRTQREPDLADDVTDYGSIGEFYDALRVGMEQLRGHVRGNQKQMDEFGPFYQNSPPLTVTESGDAGFLQALTLVDIIVDQGEGQTQPVETIPTEFQNTADGFQDAWPHFQRFDFIRRMPNWPGVYTGVTDPPAGSPGAEAQARLIADFAGFLDILNGMFSGGGAPPAFGVQMAKLGGDILSCWKLGAVPRYS”, the protein production result was “not failed”.

As for “MIGVITSLTGGAILRNPAVLLIPLIYLVGRRSRDLTYLLFVMYTIITFQFVEVKELISYETIKTTLMAIIPSLLALKESIEGKKLQKTDLYYLPLFFLGVLRDYFYYLGLIIAGLLHIENFHSILIPAAVFSLIISPALVGELIELPGEYISIIMAGSLLVIYLVFQPTRR”, the protein production entry was “failed”.

“MTKNEEGRVRRFVIRYVGSGRVPPCWIAGIFALCWGGVALAGGVALQSVDFTALPSENFQLRLGFDGPVPEPRSFTTEHPARIALDLAGVRSDLDKKPIPVHQAGVETVQAIAAGGRTRVILNLATAVPYTTRVAGRFLYVTLQSGKAGSRADDSASAPVVVTERPVVGGPQVESIDFRRGEKGEGRLLVALSDPNSLINLREEGRSVVADLPGTSLPGRLARRLEVIDFATPVKWVEAMPVGRGARLLITPVSDEYDYSSYQSGKLLTVELRPLSRAEKEEAKKRRLVFAGERLSLNFQDIPVRNVLQILADFTNLNIVASDSVQGSVTLRLNEVPWDEALDLVLKAKGLGKRQEANSNVIRVAPLDEINRSERDELEALKVVEDLEPLRTEIIQINYTKADDIKKVIMGTTEKAEKAITRPEALTGGPGVTSTEAYDVTQSILSSRGNVTTDPRTNQLIVQDTPRNLERIRDLVRQLDKPVRQVMIESRVVIANVDFLRELGAKLDFRPKNLTAAERLNPTGSMADLGVDLAKLTTLSPYGTAQYVVSMGDYLLDLELSAAQKEGRGEIVANPRVLTADQSKAKIMQGVELPYQITQQGTGGGIPVQNVAFKPAVLELDVTPHITPDDHILMDLMVKKDDKGELAPNGNFAIEKREIDTVAQVANGETVVLGGVYEGTRRNNTDKVPFFGDLPGIGFMFRRNAVEDRKKELLIFITPKIVKQTSMTP”: the protein production entry is reported as “failed”.

“DPQILTTPGRDIAELRRIAGRPLSVAIDFEGGRVLRHRGILGDFPSPQVMAQTMTPEQVRGMAYDMGRSLFAHGINVNFAPVVDIEAGLEVVGDRAFSPDPLIDATYATAFAQGMADAGVRPVLKHFPGHGRASGDSHTAQVHTPPLAELEKLDLIPYGRVP”: the protein production result is given as “failed”.
